Data on twelve molecules can be found in patent US20050227289A1 (published 2005).

B1: Ab12 41/WT (scFv, part only; not given: display fusion parts and tags, part only)
scFv fusion displayed on yeast, part: GENKVEYAPALMALSQVQLQESGPGLVKPSETLSLTCTVSGASISSYYWSWIRQPPGKGLEWIGYIYYSGSTNYNPSLKSRVTISVDTSKNQFSLKLRSVTAADTAVYYCARERLGIGDYWGQGTLVTVSSGGGGSGGGGSGGGGSDIQLTQSPSSLSASVGDRVTITCRASQGIRNDLGWYQQKPGKAPKRLIYAASSLQSGVPSRFSGSGSGTEFTLTISSLQPEDFATYYCLQHNTYPPTFGQGTKVEIK
B2: Ab12 IgG2/K (antibody, V domains shown)
VH: QVQLQESGPGLVKPSETLSLTCTVSGASISSYYWSWIRQPPGKGLEWIGYIYYSGSTNYNPSLKSRVTISVDTSKNQFSLKLRSVTAADTAVYYCARERLGIGDYWGQGTLVTVSS
VL: DIQLTQSPSSLSASVGDRVTITCRASQGIRNDLGWYQQKPGKAPKRLIYAASSLQSGVPSRFSGSGSGTEFTLTISSLQPEDFATYYCLQHNTYPPTFGQGTKVEIK
B3: Ab12.120 (antibody, IgG2, V domains shown)
VH: QVQLQESGPGLVKPSETLSLTCTVSGASISSYYWSWIRQPPGKGLEWIGYIYYEGSTNYNPSLKSRVTISVDTSKNQFSLKLRSVTAADTAVYYCARERLGIGDYWGQGTLVTVSS
VL: DIQLTQSPSSLSASVGDRVTITCRASQGIRNDLGWYQQKPGKAPKRLIYAASSLQSGVPSRFSGSGSGTEFTLTISSLQPEDFATYYCLQHNTYPPTFGQGTKVEIK
B4: Ab12.119 (antibody, IgG2, V domains shown)
VH: QVQLQESGPGLVKPSETLSLTCTVSGASISSYYWSWIRQPPGKGLEWIGYIYGSGSTNYNPSLKSRVTISVDTSKNQFSLKLRSVTAADTAVYYCARERLGIGDYWGQGTLVTVSS
VL: DIQLTQSPSSLSASVGDRVTITCRASQGIRNDLGWYQQKPGKAPKRLIYAASSLQSGVPSRFSGSGSGTEFTLTISSLQPEDFATYYCLQHNTYPPTFGQGTKVEIK
B5: Ab12.6 (antibody, V domains shown)
VH: QVQLQESGPGLVKPSETLSLTCTVSGASISSYYWSWIRQPPGKGLEWIGYIGGEGSTNYNPSLKSRVTISVDTSKNQFSLKLRSVTAADTAVYYCARERLGIGDYWGQGTLVTVSS
VL: DIQLTQSPSSLSASVGDRVTITCRASQGIRNDLGWYQQKPGKAPKRLIYAASSLQSGVPSRFSGSGSGTEFTLTISSLQPEDFATYYCLQHNTYPPTFGQGTKVEIK
B6: Ab12.118 (antibody, IgG2, V domains shown)
VH: QVQLQESGPGLVKPSETLSLTCTVSGASISSYYWSWIRQPPGKGLEWIGYIGYSGSTNYNPSLKSRVTISVDTSKNQFSLKLRSVTAADTAVYYCARERLGIGDYWGQGTLVTVSS
VL: DIQLTQSPSSLSASVGDRVTITCRASQGIRNDLGWYQQKPGKAPKRLIYAASSLQSGVPSRFSGSGSGTEFTLTISSLQPEDFATYYCLQHNTYPPTFGQGTKVEIK
B7: Ab12.56 (antibody, V domains shown)
VH: QVQLQESGPGLVKPSETLSLTCTVSGASISSYYWSWIRQPPGKGLEWIGYIAGTGSTNYNPSLKSRVTISVDTSKNQFSLKLRSVTAADTAVYYCARERLGIGDYWGQGTLVTVSS
VL: DIQLTQSPSSLSASVGDRVTITCRASQGIRNDLGWYQQKPGKAPKRLIYAASSLQSGVPSRFSGSGSGTEFTLTISSLQPEDFATYYCLQHNTYPPTFGQGTKVEIK
B8: Ab12.122 (antibody, IgG2, V domains shown)
VH: QVQLQESGPGLVKPSETLSLTCTVSGASISSYYWSWIRQPPGKGLEWIGYIYGEGSTNYNPSLKSRVTISVDTSKNQFSLKLRSVTAADTAVYYCARERLGIGDYWGQGTLVTVSS
VL: DIQLTQSPSSLSASVGDRVTITCRASQGIRNDLGWYQQKPGKAPKRLIYAASSLQSGVPSRFSGSGSGTEFTLTISSLQPEDFATYYCLQHNTYPPTFGQGTKVEIK
B9: Ab12.121 (antibody, IgG2, V domains shown)
VH: QVQLQESGPGLVKPSETLSLTCTVSGASISSYYWSWIRQPPGKGLEWIGYIGGSGSTNYNPSLKSRVTISVDTSKNQFSLKLRSVTAADTAVYYCARERLGIGDYWGQGTLVTVSS
VL: DIQLTQSPSSLSASVGDRVTITCRASQGIRNDLGWYQQKPGKAPKRLIYAASSLQSGVPSRFSGSGSGTEFTLTISSLQPEDFATYYCLQHNTYPPTFGQGTKVEIK
B10: Ab12.123 (antibody, IgG2, V domains shown)
VH: QVQLQESGPGLVKPSETLSLTCTVSGASISSYYWSWIRQPPGKGLEWIGYIGYEGSTNYNPSLKSRVTISVDTSKNQFSLKLRSVTAADTAVYYCARERLGIGDYWGQGTLVTVSS
VL: DIQLTQSPSSLSASVGDRVTITCRASQGIRNDLGWYQQKPGKAPKRLIYAASSLQSGVPSRFSGSGSGTEFTLTISSLQPEDFATYYCLQHNTYPPTFGQGTKVEIK
B11: Ab12 WT/WT (scFv)
scFv: QVQLQESGPGLVKPSETLSLTCTVSGASISSYYWSWIRQPPGKGLEWIGYIYYSGSTNYNPSLKSRVTISVDTSKNQFSLKLRSVTAADTAVYYCARERLGIGDYWGQGTLVTVSSGGGGSGGGGSGGGGSDIQLTQSPSSLSASVGDRVTITCRASQGIRNDLGWYQQKPGKAPKRLIYAASSLQSGVPSRFSGSGSGTEFTLTISSLQPEDFATYYCLQHNTYPPTFGQGTKVEIK
notes: not shown: Aga2/Xpress display part of pYD1 before the tether, and the C-terminal V5 and His tags
B12: Ab12 41/34 (scFv)
scFv: QVQLQESGPGLVKPSETLSLTCTVSGASISSYYWSWIRQPPGKGLEWIGYIYYSGSTNYNPSLKSRVTISVDTSKNQFSLKLRSVTAADTAVYYCARERLGIGDYWGQGTLVTVSSGHEAAAVMQVQYPASDIQLTQSPSSLSASVGDRVTITCRASQGIRNDLGWYQQKPGKAPKRLIYAASSLQSGVPSRFSGSGSGTEFTLTISSLQPEDFATYYCLQHNTYPPTFGQGTKVEIK
notes: as for B11

In general, EC50 (read off the curve) refers to the concentration giving half of the maximal effect. For orientation: Kd means the constant that tells how readily two partners part at equilibrium.

One test addresses T1, soluble EpoR (EposR), soluble recombinant human erythropoietin receptor (human) (UniProt P19235).
T1 sequence (looked up): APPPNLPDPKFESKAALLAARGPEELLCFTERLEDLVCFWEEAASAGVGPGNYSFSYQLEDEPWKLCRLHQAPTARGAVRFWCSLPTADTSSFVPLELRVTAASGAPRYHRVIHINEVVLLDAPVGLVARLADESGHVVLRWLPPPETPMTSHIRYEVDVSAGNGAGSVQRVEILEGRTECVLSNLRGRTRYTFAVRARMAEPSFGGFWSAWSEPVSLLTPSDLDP
As to the kind of experiment: equilibrium titration of soluble EpoR on yeast-displayed scFv at 37 C, flow cytometry, detection with MAB307 + anti-mouse RPE. A general note: A flow cytometer gives signals particle by particle.
For B1, the EC50 (read off the curve) worked out at 6 nM and the dissociation constant (Kd) is 5 nM.

A further test deals with T2, human erythropoietin receptor (EpoR) on UT-7/Epo cells (human, UniProt P19235 25-508).
T2 sequence (looked up): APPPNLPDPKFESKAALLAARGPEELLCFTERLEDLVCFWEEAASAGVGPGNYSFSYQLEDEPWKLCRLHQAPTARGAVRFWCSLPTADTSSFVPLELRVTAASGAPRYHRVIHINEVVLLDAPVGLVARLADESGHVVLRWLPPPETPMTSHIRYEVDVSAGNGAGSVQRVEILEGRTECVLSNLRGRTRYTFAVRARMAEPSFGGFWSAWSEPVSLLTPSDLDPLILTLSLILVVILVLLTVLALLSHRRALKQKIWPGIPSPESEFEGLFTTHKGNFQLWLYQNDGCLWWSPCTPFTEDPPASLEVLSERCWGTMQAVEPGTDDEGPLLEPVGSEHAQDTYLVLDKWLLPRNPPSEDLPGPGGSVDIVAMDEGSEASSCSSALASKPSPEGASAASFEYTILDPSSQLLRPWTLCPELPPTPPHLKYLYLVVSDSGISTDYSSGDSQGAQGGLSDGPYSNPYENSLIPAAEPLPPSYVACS
As to the kind of experiment: cell-based or functional assay.
With B2, the “Emax (cell proliferation, absorbance)” value was found to be 1.98 absorbance. The same measure, in the same setting: next, B3: 2 absorbance; B4: 2.53 absorbance; B5: 2.81 absorbance. As to B6, the “Emax (cell proliferation, absorbance)” value was 2.65 absorbance.

In the case of B7, the “Emax (cell proliferation, absorbance)” value amounted to 2.51 absorbance.

With B8, the “Emax (cell proliferation, absorbance)” value is 2.4 absorbance. Take B9: the “Emax (cell proliferation, absorbance)” value amounted to 2.3 absorbance. As to B10, the “Emax (cell proliferation, absorbance)” value amounted to 2.7 absorbance.

A further test has as its target T3, soluble EpoR (EposR), soluble recombinant human erythropoietin receptor (human, UniProt P19235 25-250, limits assumed).
T3 construct: Called only 'soluble EpoR (EposR)'
T3 sequence (looked up): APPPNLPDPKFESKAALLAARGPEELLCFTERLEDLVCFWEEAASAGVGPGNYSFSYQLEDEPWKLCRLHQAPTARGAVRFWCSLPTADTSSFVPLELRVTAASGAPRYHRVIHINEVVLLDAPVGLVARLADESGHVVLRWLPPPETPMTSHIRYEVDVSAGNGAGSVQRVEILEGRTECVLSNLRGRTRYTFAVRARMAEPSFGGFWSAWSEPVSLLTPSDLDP
Nature of the test: equilibrium titration of soluble EpoR on yeast-displayed scFv at 37 C, flow cytometry, detection with MAB307 + anti-mouse RPE. The source says:
FIG. 2 is a graph showing equilibrium binding of soluble EpoR with various Ab12 scFv constructs expressed on the surface of yeast cells. In FIG. 2, -▪- represents an Ab12 scFv construct comprising a Gly/Ser linker (WT), […] (SEQ ID NO:1) in both the tether and scFv linker positions, -●- represents an […] comprising linker 41, GENKVEYAPALMALS (SEQ ID NO:2) in the tether position and the Gly/Ser linker (WT) (SEQ ID NO:1) in the scFv linker position, -▴- represents an Ab12 scFv construct comprising linker 41 (SEQ ID NO:2) in the tether position and linker 40, […] (SEQ ID NO:3) in the scFv linker position, and -▾- represents an Ab12 scFv construct comprising linker 41 (SEQ ID NO:2) in the tether position and linker 34, […] (SEQ ID NO:4) in the scFv linker position.
Various single stranded oligonucleotides encoding Ab12 scFvs were co-transformed with a linearized “gapped” vector derived from pYD1 (Invitrogen, Carlsbad, Calif.) into yeast by techniques well known to practitioners in the art. Cell surface protein expression was compared by incubating the transformed yeast with increasing concentrations of soluble EpoR (EposR) at 37° C. (FIG. 2). Bound antigen was detected using a monoclonal antibody to EpoR, MAB307 obtained commercially from R and D Systems (Minneapolis, Minn.) followed by anti-mouse phycoerythrin (PE, Southern Biotech, Birmingham, Ala.). […]
With B11, the Kd came out at 9 nM. Consider B12, for which the Kd is 8.5 nM.
